Assay results taken from patent US20130303441.

T1: pGS-1 peptide substrate, YRRAAVPPSPSLSRHSSPSQS(p)EDEEE
T1 chain: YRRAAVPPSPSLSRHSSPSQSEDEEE

T2: pIRS-1 peptide substrate, RREGGMSRPAS(p)VDG
T2 chain: RREGGMSRPASVDG

T3: p9CREB peptide substrate, ILSRRPS(p)YR
T3 chain: ILSRRPSYR

T4: L803-mts, cell permeable variant of L803 with myristic acid attached to its N-terminal
T4 chain: GKEAPPAPPQSP


Assays:
[1] = target: T1, pGS-1 peptide substrate, …
[2] = target: T2, pIRS-1 peptide substrate, …
[3] = target: T3, p9CREB peptide substrate, ILSRRPS(p)YR
[4] = target: T4, L803-mts, cell permeable variant of …

| Protein | Substrate phosphorylation (% of WTGSK-3β), in vitro kinase assay (% of WT GSK-3β) [1] | Substrate phosphorylation (% of WTGSK-3β), in vitro kinase assay (% of WT GSK-3β) [2] | Substrate phosphorylation (% of WTGSK-3β), in vitro kinase assay (% of WT GSK-3β) [3] | in vitro kinase assays using pIRS-1, p9CREB and pGS-1 substrate in the presence or absence of L803-mts (100 µM) [4] |
| --- | --- | --- | --- | --- |
| GSK-3β F93A mutant (protein) MSGRPRTTSFAESCKPVQQPSAFGSMKVSRDKDGSKVTTVVATPGQGPDRPQEVSYTDTKVIGNGSFGVVYQAKLCDSGELVAIKKVLQDKRAKNRELQIMRKLDHCNIVRLRYFFYSSGEKKDEVYLNLVLDYVPETVYRVARHYSRAKQTLPVIYVKLYMYQLFRSLAYIHSFGICHRDIKPQNLLLDPDTAVLKLCDFGSAKQLVRGEPNVSYICSRYYRAPELIFGATDYTSSIDVWSAGCVLAELLLGQPIFPGDSGVDQLVEIIKVLGTPTREQIREMNPNYTEFKFPQIKAHPWTKDSSGTGHFTSGVRVFRPRTPPEAIALCSRLLEYTPTARLTPLEACAHSFFDELRDPNVKLPNGRDTPALFNFTTQELSSNPPLATILIPPHARIQAAASTPTNATAASDANTGDRGQTNNAASASASNST | 13 | 42 | 46 | – |
| GSK-3β K91A mutant (protein) MSGRPRTTSFAESCKPVQQPSAFGSMKVSRDKDGSKVTTVVATPGQGPDRPQEVSYTDTKVIGNGSFGVVYQAKLCDSGELVAIKKVLQDARFKNRELQIMRKLDHCNIVRLRYFFYSSGEKKDEVYLNLVLDYVPETVYRVARHYSRAKQTLPVIYVKLYMYQLFRSLAYIHSFGICHRDIKPQNLLLDPDTAVLKLCDFGSAKQLVRGEPNVSYICSRYYRAPELIFGATDYTSSIDVWSAGCVLAELLLGQPIFPGDSGVDQLVEIIKVLGTPTREQIREMNPNYTEFKFPQIKAHPWTKDSSGTGHFTSGVRVFRPRTPPEAIALCSRLLEYTPTARLTPLEACAHSFFDELRDPNVKLPNGRDTPALFNFTTQELSSNPPLATILIPPHARIQAAASTPTNATAASDANTGDRGQTNNAASASASNST | 119 | 140 | 161 | – |
| GSK-3β D90A mutant (protein) MSGRPRTTSFAESCKPVQQPSAFGSMKVSRDKDGSKVTTVVATPGQGPDRPQEVSYTDTKVIGNGSFGVVYQAKLCDSGELVAIKKVLQAKRFKNRELQIMRKLDHCNIVRLRYFFYSSGEKKDEVYLNLVLDYVPETVYRVARHYSRAKQTLPVIYVKLYMYQLFRSLAYIHSFGICHRDIKPQNLLLDPDTAVLKLCDFGSAKQLVRGEPNVSYICSRYYRAPELIFGATDYTSSIDVWSAGCVLAELLLGQPIFPGDSGVDQLVEIIKVLGTPTREQIREMNPNYTEFKFPQIKAHPWTKDSSGTGHFTSGVRVFRPRTPPEAIALCSRLLEYTPTARLTPLEACAHSFFDELRDPNVKLPNGRDTPALFNFTTQELSSNPPLATILIPPHARIQAAASTPTNATAASDANTGDRGQTNNAASASASNST | 83 | 88 | 92 | – |
| GSK-3β R92A mutant (protein) MSGRPRTTSFAESCKPVQQPSAFGSMKVSRDKDGSKVTTVVATPGQGPDRPQEVSYTDTKVIGNGSFGVVYQAKLCDSGELVAIKKVLQDKAFKNRELQIMRKLDHCNIVRLRYFFYSSGEKKDEVYLNLVLDYVPETVYRVARHYSRAKQTLPVIYVKLYMYQLFRSLAYIHSFGICHRDIKPQNLLLDPDTAVLKLCDFGSAKQLVRGEPNVSYICSRYYRAPELIFGATDYTSSIDVWSAGCVLAELLLGQPIFPGDSGVDQLVEIIKVLGTPTREQIREMNPNYTEFKFPQIKAHPWTKDSSGTGHFTSGVRVFRPRTPPEAIALCSRLLEYTPTARLTPLEACAHSFFDELRDPNVKLPNGRDTPALFNFTTQELSSNPPLATILIPPHARIQAAASTPTNATAASDANTGDRGQTNNAASASASNST | 41 | 60 | 49 | – |
| wild-type (WT) GSK-3β (protein) MSGRPRTTSFAESCKPVQQPSAFGSMKVSRDKDGSKVTTVVATPGQGPDRPQEVSYTDTKVIGNGSFGVVYQAKLCDSGELVAIKKVLQDKRFKNRELQIMRKLDHCNIVRLRYFFYSSGEKKDEVYLNLVLDYVPETVYRVARHYSRAKQTLPVIYVKLYMYQLFRSLAYIHSFGICHRDIKPQNLLLDPDTAVLKLCDFGSAKQLVRGEPNVSYICSRYYRAPELIFGATDYTSSIDVWSAGCVLAELLLGQPIFPGDSGVDQLVEIIKVLGTPTREQIREMNPNYTEFKFPQIKAHPWTKDSSGTGHFTSGVRVFRPRTPPEAIALCSRLLEYTPTARLTPLEACAHSFFDELRDPNVKLPNGRDTPALFNFTTQELSSNPPLATILIPPHARIQAAASTPTNATAASDANTGDRGQTNNAASASASNST | – | – | – | L803-mts competes with various substrates |
| GSK-3β K94A mutant (protein) MSGRPRTTSFAESCKPVQQPSAFGSMKVSRDKDGSKVTTVVATPGQGPDRPQEVSYTDTKVIGNGSFGVVYQAKLCDSGELVAIKKVLQDKRFANRELQIMRKLDHCNIVRLRYFFYSSGEKKDEVYLNLVLDYVPETVYRVARHYSRAKQTLPVIYVKLYMYQLFRSLAYIHSFGICHRDIKPQNLLLDPDTAVLKLCDFGSAKQLVRGEPNVSYICSRYYRAPELIFGATDYTSSIDVWSAGCVLAELLLGQPIFPGDSGVDQLVEIIKVLGTPTREQIREMNPNYTEFKFPQIKAHPWTKDSSGTGHFTSGVRVFRPRTPPEAIALCSRLLEYTPTARLTPLEACAHSFFDELRDPNVKLPNGRDTPALFNFTTQELSSNPPLATILIPPHARIQAAASTPTNATAASDANTGDRGQTNNAASASASNST | 19 | 52 | 71 | – |
